The EC50 is the concentration needed to bring the measured effect to its halfway point.

This is an account of results in patent US20170334973A1 (INTEGRATED BIOTHERAPEUTICS, published 2017).

First the molecules themselves.
B1: FVM29 (antibody, V domains shown)
VH: EVQLVQSGAEVKRPGESLKISCQTSGNSFTNNWISWVRQMPGKGLEWMGAIDPSDSETRYSPSFQGQVTISADKSINTAYLQWSSLKASDTATYYCVKGSETWGQGVLVTVSS
VL: QPVLTQPASLSASPGASASLTCTFSGGINVAGYNILWYQQKAGSPPRYLLRYKSDSTKDQGSGVPSRFSGSKDASANTGILRISGLQSEDEADYYCAIGHSSGWIFGGGTRLTVL
B2: FVM39 (antibody, V domains shown)
VH: EVQLVQSGAEVKRPGESLRISCKTSGYSFTDSWISWVRQMPGKGLEWLGSIYPGDSETKYNPSFQGHVTISADKSVTTTYLKWSSLKASDTATYYCVKGSETWGQGVLVTVSS
VL: B1 VL
B3: FVM07 (antibody, V domains shown)
VH: EVQLVQSGAEVKRPGESLTISCKTSGYSFTDSWIGWVRQMPGKGLEWMGSIYPGDSDTKYNPSFQGHVTISADKSISTTYLQWSSLKASDTATYYCVAREAYWGQGVLVTVSS
VL: B1 VL with N34H, L36F, A42P, T57D, D59G, W104V, I105L
B4: FVM10 (antibody, V domains shown)
VH: QVQLVQSGAEVKRPGESLKISCQTSGYSFTDSWVAWVRQMPGKGLEWLGSIYPGDSETKYNPSFQGHVTISADKSISTAYLQWSSLKASDTATYYCAKGSETWGQGLRVTVSS
VL: B1 VL with P2A, V3G, A42P, T57D
B5: FVM08 (antibody, V domains shown)
VH: EVQLVQSGAEVKRPGESLTISCKTSGYSFTDSWVAWVRQMPGKGLEWMGSIYPGDSDTRYNPSFEGQVTISADKSISTTYLQWSSLRASDTATYYCVKGADDWGQGVLVTVSS
VL: B1 VL
B6: FVM12 (antibody, V domains shown)
VH: B2 VH with R19T, G26E, D31G, L48M, E57D, K59R, N61S, H67Q
VL: B1 VL with P14L, A42P, Y48F, T57D, K58N, D59V, R67H, A76T, I105V
B7: FVM31 (antibody, V domains shown)
VH: B2 VH with E1Q, R19T, I34V, S35A, E57D, T58A, K59R, K74T
VL: B1 VL with Q1K, V3M
B8: FVM37 (antibody, V domains shown)
VH: B2 VH with E1Q, R19K, S28R, D31S
VL: B1 VL with Q1S, P2S, V3E
B9: FVM35 (antibody, V domains shown)
VH: B2 VH with R19T, D31S, S32Y, S35T
VL: B1 VL
B10: FVM38 (antibody, V domains shown)
VH: B2 VH with E1Q, R19T, S35G, L48M, G49A, G54D
VL: B1 VL
B11: FVM34 (antibody, V domains shown)
VH: B2 VH with Q6E, R19T, I34V, L48M
VL: B1 VL with N34Y, L36H, A42P, T57D, D59H, I105V
B12: FVM11 (antibody, V domains shown)
VH: B2 VH with R19T, I34V, S35A
VL: B1 VL with Q1N, P2F, V3M
B13: FVM15 (antibody, V domains shown)
VH: B2 VH with E1Q, S28T, S32Y, S35A, L48M, S85R
VL: B1 VL
B14: FVM22 (antibody, V domains shown)
VH: B4 VH with Q1E, K19T, Q23K, L107V, R108L
VL: B1 VL with Q1S, P2S, V3G
B15: FVM06 (antibody, V domains shown)
VH: B1 VH with K19T, Q23K, N27Y, N32Y, K43E, E57D, I70M, N77T
VL: B1 VL
B16: FVM40 (antibody, V domains shown)
VH: B2 VH with R19T, L48M
VL: B1 VL with V3M
B17: FVM33 (antibody, V domains shown)
VH: B2 VH with E1Q, R19K, G26R, D31S, S35G, E57D, K59R
VL: B1 VL
B18: FVM27 (antibody, V domains shown)
VH: B1 VH with Q23K, N27Y, T30A, N31S, N32S, E57A, N77S
VL: B1 VL with T113I
B19: FVM26 (antibody, V domains shown)
VH: B2 VH with E1Q, S28T, S32Y, S35A, L48M, S85R
VL: B1 VL
B20: FVM41 (antibody, V domains shown)
VH: B2 VH with R19K, S32T, L48M
VL: B1 VL with Q1E, P2T, L4V, W104V, I105L
B21: FVM16 (antibody, V domains shown)
VH: B2 VH with R19K, K23R, D31S, S32T, S35N
VL: B1 VL with Q1K, V3M, I105V
B22: FVM14 (antibody, V domains shown)
VH: B2 VH with R19K, K23Q, D31S, S32T, S35T, V76I, T77S, K82Q, S84N
VL: B1 VL with P2A, L4V
B23: FVM01P (antibody, V domains shown)
VH: QVQLQESGPGLVKPSETLSLTCTVSGASISNYRWNWIRQPPGKGLEWIGEINGYSGSTNYNPSLKSRVTISKDASKNQFSLKLTSVTAADTAVYYCPIIGGFTLEWFDVWGPGVLVTVSS
VL: DVVLTQSPSSLSASVGDRVTITCRASQGIRNYLNWYQQKPRKAPKLLIYAASSLQSGVPSRFSGSGSGTEFTLTISSLQAEDFATYYCLQGYRTPFTFGPGTKLDIKR
B24: FVM05 (antibody, V domains shown)
VH: QVQLQESGPGLVKPSETLSLTCAVSGFSISSGYGWSWIRQPPGKGLEWIGYIGGSSGSTSYNPSLKSRVTLSADTSKNQFSLKLSSVTAADTAVYYCARRYSSYRSWFDVWGPGVLVTVSS
VL: SSGLTQPRSVSVSPGQTARITCGGDNIGSKSVHWYQQKPPQAPVLVIYADSERPSGIPERFSGSNSGNTATLTISGVEAGDEADYYCQVWDSSSDHWVFGGGTRLTVL
B25: FVM42 (antibody, V domains shown)
VH: B2 VH with Q6E, R19T, I34V, S35A, L48M
VL: B1 VL with P2T, L4V
B26: FVM36 (antibody, V domains shown)
VH: B2 VH with R19T, S32N, L48M
VL: B1 VL with P2S

Substitutions are numbered along the chain they refer to.

The first experiment has as its target SUDV GPddmuc (Sudan virus (SUDV), UniProt Q66814 33-650). Nature of the experiment: ELISA. For orientation: ELISA stands for enzyme-linked immunosorbent assay.
B1: the EC50 turned out to be 12800 pM.

Molecule B2 showed an EC50 of 20 pM.

B3 registered an EC50 of 491 pM.

B4 registered an EC50 of 82 pM.

On to B5, for which the EC50 amounted to 48 pM.

In turn, B6 had a half-maximal effective concentration (EC50) of 81 pM.

For the molecule B7, the EC50 is 93 pM.

B8 showed a concentration giving a half-maximal response (EC50) of 33 pM.

On to B9, for which a half-maximal response (EC50) required 33 pM.

Molecule B10 displayed an EC50 of 53 pM.

Consider B11, for which the response was half-maximal at 27 pM (EC50).

In turn, B12 yielded an EC50 of 53 pM.

B13 registered an EC50 of 35 pM.

Consider B14, for which the EC50 was 600 pM.

As for B15, the EC50 worked out at 50 pM.

For the molecule B16, the EC50 turned out to be 33 pM.

B17 registered an EC50 of 40 pM.

B18 registered an EC50 of 40 pM.

On to B19, for which the response was half-maximal at 80 pM (EC50).

Molecule B20 came in with an EC50 of 53 pM.

Turning to B21, it took 59 pM to reach a half-maximal effect (EC50).

Regarding B22, the EC50 is 77 pM.

Turning to B23, the EC50 was 47 pM.

A further experiment concerns the target EBOV GPddmuc (Ebola virus (EBOV), UniProt Q05320 33-650). The experiment is described as follows: ELISA.
B2: the EC50 is 27 pM.

With B3, the EC50 is 119 pM.

B4 came in with an EC50 of 79 pM.

B5 showed a concentration giving a half-maximal response (EC50) of 461 pM.

B6 came in with an EC50 of 91 pM.

As for B7, the concentration for a half-maximal effect (EC50) is 107 pM.

Consider B8, for which the EC50 is 47 pM.

For the molecule B9, the midpoint of the response, the EC50, lay at 33 pM.

For the molecule B10, the EC50 came to 60 pM.

With B11, the EC50 was 27 pM.

The molecule B12 showed an EC50 of 59 pM.

B13 returned an EC50 of 42 pM.

Regarding B14, it took 67 pM to reach a half-maximal effect (EC50).

Molecule B15 yielded an EC50 of 59 pM.

Take B16: the response was half-maximal at 40 pM (EC50).

B17 came in with an EC50 of 40 pM.

The molecule B18 came in with an EC50 of 47 pM.

On to B19, for which the midpoint of the response, the EC50, lay at 100 pM.

B20 had an EC50 of 47 pM.

As for B21, the midpoint of the response, the EC50, lay at 66 pM.

B22 registered an EC50 of 86 pM.

B24 gave an EC50 of 2670 pM.

Molecule B23 registered an EC50 of 57 pM.

For a further experiment, the target named is MARV GPddmuc (Marburg virus (MARV), UniProt P35253 19-648). The experiment is described as follows: native ELISA.
In the case of B1, the binding result is on record as “no binding”.

B2: the binding result is reported as “no binding”.

For the molecule B3, the binding result is listed as “no binding”.

As to B4, the binding result is “no binding”.

For the molecule B5, the binding result was “no binding”.

Regarding B6, the binding result was “no binding”.

As for B7, the binding result is “no binding”.

Consider B8, for which the binding result is listed as “no binding”.

As to B9, the binding result is on record as “no binding”.

On to B10, for which the binding result is “no binding”.

Regarding B11, the binding result is given as “no binding”.

With B12, the binding result is recorded as “no binding”.

Consider B25, for which the binding result was “no binding”.

As to B13, the binding result was “no binding”.

Turning to B14, the binding result is reported as “no binding”.

For B15, the binding result is reported as “no binding”.

Turning to B16, the binding result is reported as “no binding”.

As for B17, the binding result is “no binding”.

Regarding B18, the binding result is “no binding”.

On to B19, for which the binding result is reported as “no binding”.

Turning to B20, the binding result is reported as “no binding”.

On to B21, for which the binding result is reported as “no binding”.

In the case of B22, the binding result is given as “no binding”.

In the case of B26, the binding result is “no binding”.

As for B24, the binding result is listed as “no binding”.

For B23, the binding result is reported as “no binding”.
